Source: patent US20100266587A1, “Compositions and Methods to Treat Acute Myelogenous Leukemia” (BIOGEN IDEC MA INC., priority 2009, published 2010)
Each block holds one molecule with its values, some of them ahead of it.

What was measured:
[1] = system: VLA-4 and VLA-5 adhesion to fibronectin; conditions: cited from earlier work
[2] = system: fibronectin-dependent cell adhesion; conditions: cited from earlier work
MM cell line U226 = experiment: Adhesion mediated drug resistance, MM cells, melphalan; assay type: cell-based
Protocol: (§1) FIGS. 6A-6D are graphs showing the results of natalizumab on cell adhesion mediated drug resistance. FIG. 6A depicts the percentage of viable HL60 cells remaining after the cells were cocultured for 24 hours with (▪) or without (□) BMSC, then exposed to the chemotherapy drug AraC (cytarabine) for 24 hours. FIG. 6B depicts the percentage of apoptotic cells (Annexin V+, 7AAD) after cocultured HL60 cells were incubated with natalizumab or isotype control antibody for 4 hr., and then exposed to an effective AraC dose as determined from FIG. 6A for 24 hours. FIGS. 6C and 6D show the results of similar experiments conducted with U266 cells exposed to melphalan.

[3] = target: T1, VLA-4 on tumor cell lines (Homo sapiens, UniProt P13612); experiment: Binding of natalizumab to AML, CLL and MM tumor cell lines by flow cytometry (all lines)
T1 construct: VLA-4 expression was observed on all cell lines tested; endogenous in cells; host or cells: HL60, KG1 (AML); U266, H929 (MM); Mec1, JM1 (CLL)
Protocol: FIG. 2 is a graph depicting binding of natalizumab to VLA-4 on tumor cell lines as measured by flow cytometry.
(§2) Flow cytometry experiments were performed to assess the level of VLA-4 expression on tumor cell lines, and VLA-4 expression was observed on all cell lines tested (FIG. 1).).

P-STAT3 = experiment: Western blot of coculture-induced survival signaling; assay type: cell-based; conditions: cells cocultured with BMSCs, 30 minutes (HL60) or 4 hr (U266)
Protocol: FIG. 7 is a panel of Western blots assaying for P-STAT3, STAT3, P-JNK, JNK, P-MAPK, and MAPK levels in HL60, KG1 or U266 cells grown in suspension or cocultured with BMSCs and natalizumab, as indicated, for 30 minutes (HL60) or 4 hours (U266).
HL60, KG1 or U266 cells were grown in suspension or coculture with BMSCs and natalizumab, as indicated, for 30 minutes (HL60) or 4 hr (U266), and then the cells were separated from BMSCs, and processed for Western blot analysis to determine levels of P-STAT3, STAT3, P-JNK, JNK, P-MAPK, and MAPK (FIG. 7).

AML cell line HL60 = experiment: Adhesion mediated drug resistance, HL60 cocultured with BMSC, ara-C, apoptosis; assay type: cell-based; conditions: natalizumab combined with ara-C 10 μM, 24 hours
Protocol: as §1
Culturing the AML cell line HL60 in the presence of BMSC conferred a protective advantage to the cells when treated with the chemotherapeutic agent ara-C, as shown in FIG. 6A. Cells were cultured for 24 hours with (▴) or without (□) BMSC, then exposed to the chemotherapy drug AraC (cytarabine) for 24 hours (FIG. 6A). Cell viability was enhanced by the presence of BMSC.

[4] = system: tumor cell binding to VLA-4 ligands; experiment: Maximally attainable inhibition of tumor cell binding to VLA-4 ligands at saturating antibody; assay type: cell-based; conditions: saturating levels of natalizumab (20 μg/mL) vs isotype control
Protocol: FIGS. 3A and 3B are graphs showing the effect of natalizumab on HL60 and KG1 AML tumor cell adhesion to VLA-4 ligands fibronectin (• FN), vascular adhesion molecule-1-Ig fusion protein (▪ VCAM-Ig), or bone marrow stromal cells (▴ BMSC), in the presence of natalizumab or an isotype control antibody in serial dilutions starting at 20 μg/ml. FIGS. 3C and 3D show inhibition of binding of HL60 and KG1 AML cells to VLA-4 ligands in the presence saturating levels of natalizumab (20 μg/mL) (solid bars) or isotype control (clear bars).
(§3) FIGS. 4A and 4B are graphs showing the effect of natalizumab on H929 and U266 mM tumor cell adhesion to VLA-4 ligands fibronectin (• FN), vascular adhesion molecule-1-Ig fusion protein (▪ VCAM-Ig), or bone marrow stromal cells (▴ BMSC). Adhesion was assayed in the presence of natalizumab or an isotype control antibody in serial dilutions starting at 20 μg/ml.
as §3, with “5A” for “4A”, “5B” for “4B”, “Mec1” for “H929”, “JM1 CLL” for “U266 mM”
Experiments were conducted to test whether a VLA-4 antagonist can inhibit binding of tumor cells to a VLA-4 ligand. […]

[5] = target: T2, VLA-4 (alpha4beta1 integrin) on hematologic tumor cell lines (UniProt P13612 34-1032; P05556 21-798); experiment: inhibition of H929 cell adhesion to wells coated with VCAM-Ig
T2 construct: whole, on cells; also called a4β1 integrin
Protocol: as §3
(§4) Experiments were conducted to test whether a VLA-4 antagonist can inhibit binding of tumor cells to a VLA-4 ligand. Cell lines were allowed to adhere to wells coated with fibronectin (• FN), vascular adhesion molecule-1-Ig fusion protein (▪ VCAM-Ig), or bone marrow stromal cells (▴ BMSC), in the presence of increasing concentrations of natalizumab or isotype control antibody.

[6] = target: T2, VLA-4 (alpha4beta1 integrin) on …; experiment: inhibition of KG1 cell adhesion to wells coated with fibronectin (FN)
Protocol: as §4

[7] = target: T2, VLA-4 (alpha4beta1 integrin) on …; experiment: inhibition of H929 cell adhesion to wells coated with fibronectin (FN)
Protocol: as §3, §4

[8] = target: T2, VLA-4 (alpha4beta1 integrin) on …; experiment: inhibition of JM1 cell adhesion to wells coated with fibronectin (FN)
Protocol: as §3, with “5A” for “4A”, “5B” for “4B”, “Mec1” for “H929”, “JM1 CLL” for “U266 mM”
as §4

[9] = target: T2, VLA-4 (alpha4beta1 integrin) on …; experiment: flow cytometry, binding to JM1 (CLL) cells
Protocol: as §2

[10] = target: T2, VLA-4 (alpha4beta1 integrin) on …; experiment: inhibition of KG1 cell adhesion to wells coated with VCAM-Ig
Protocol: as §4

[11] = target: T2, VLA-4 (alpha4beta1 integrin) on …; experiment: inhibition of Mec1 cell adhesion to wells coated with VCAM-Ig
Protocol: as §3, with “5A” for “4A”, “5B” for “4B”, “Mec1” for “H929”, “JM1 CLL” for “U266 mM”
as §4

[12] = target: T2, VLA-4 (alpha4beta1 integrin) on …; experiment: inhibition of JM1 cell adhesion to wells coated with VCAM-Ig
Protocol: as §3, with “5A” for “4A”, “5B” for “4B”, “Mec1” for “H929”, “JM1 CLL” for “U266 mM”
as §4

[13] = target: T2, VLA-4 (alpha4beta1 integrin) on …; experiment: inhibition of U266 cell adhesion to wells coated with fibronectin (FN)
Protocol: as §3, §4

[14] = target: T2, VLA-4 (alpha4beta1 integrin) on …; experiment: flow cytometry, binding to Mec1 (CLL) cells
Protocol: as §2

[15] = target: T2, VLA-4 (alpha4beta1 integrin) on …; experiment: inhibition of HL60 cell adhesion to wells coated with VCAM-Ig
Protocol: as §4

[16] = target: T2, VLA-4 (alpha4beta1 integrin) on …; experiment: cell-based or functional assay
[17] = target: T2, VLA-4 (alpha4beta1 integrin) on …; experiment: inhibition of Mec1 cell adhesion to wells coated with fibronectin (FN)
Protocol: as §3, with “5A” for “4A”, “5B” for “4B”, “Mec1” for “H929”, “JM1 CLL” for “U266 mM”
as §4

[18] = target: T2, VLA-4 (alpha4beta1 integrin) on …; experiment: flow cytometry, binding to HL60 (AML) cells
Protocol: as §2

[19] = target: T2, VLA-4 (alpha4beta1 integrin) on …; experiment: flow cytometry, binding to U266 (MM) cells
Protocol: as §2

[20] = target: T2, VLA-4 (alpha4beta1 integrin) on …; experiment: flow cytometry, binding to KG1 (AML) cells
Protocol: as §2

[21] = target: T2, VLA-4 (alpha4beta1 integrin) on …; experiment: flow cytometry, binding to H929 (MM) cells
Protocol: as §2

[22] = target: T2, VLA-4 (alpha4beta1 integrin) on …; experiment: inhibition of U266 cell adhesion to wells coated with VCAM-Ig
Protocol: as §3, §4

[23] = target: T2, VLA-4 (alpha4beta1 integrin) on …; experiment: inhibition of HL60 cell adhesion to wells coated with fibronectin (FN)
Protocol: as §4

Molecule: Arg-Cys-Asp-TPro-Cys
Inhibition of VLA-4 and VLA-5 adhesion to fibronectin [1]: can inhibit both VLA-4 and VLA-5 adhesion to fibronectin

Molecule: Glu-Ile-Leu-Asp-Val (EILDV; printed: Glu-Ile-Leu-Asp-Val) [pentapeptide from the CS-1 region of fibronectin]
Inhibitory activity against fibronectin-dependent cell adhesion [2]: possessed inhibitory activity

Molecule: Glu-Ile-Leu-Asp-Val-Pro-Ser-Thr
Inhibitory activity against fibronectin-dependent cell adhesion [2]: possessed inhibitory activity

Molecule: Leu-Asp-Val-Pro-Ser (LDVPS; printed: Leu-Asp-Val-Pro-Ser) [pentapeptide from the CS-1 region of fibronectin]
Inhibitory activity against fibronectin-dependent cell adhesion [2]: possessed inhibitory activity

Binding to AML, CLL and MM tumor cell lines [3]: saturable binding was observed
Molecule: Natalizumab
Effect on cell adhesion mediated resistance to melphalan (MM cell line U226): did not have a cytoprotective effect
Coculture-induced survival signaling through P-STAT3 (P-STAT3): can be inhibited
Percentage of cells undergoing apoptosis (AML cell line HL60): increase in the percentage of cells undergoing apoptosis
Inhibition of tumor cell binding to VLA-4 ligands at saturating levels [4]: inhibit binding in all cell types assayed

IC50 [5]: 450 pM
IC50 [6]: 100 pM
IC50 [7]: 400 pM
IC50 [8]: 11600 pM
EC50 [9]: 280 pM
IC50 [10]: 190 pM
IC50 [11]: 220 pM
IC50 [12]: 190 pM
IC50 [13]: 400 pM
EC50 [14]: 110 pM
IC50 [15]: 920 pM
IC50 (nM) of inhibition of H929 (MM) cell adhesion to bone marrow stromal cells (BMSC) [16]: 1.74 nM
IC50 (nM) of inhibition of HL60 (AML) cell adhesion to bone marrow stromal cells (BMSC) [16]: 13.7 nM
IC50 (nM) of inhibition of U266 (MM) cell adhesion to bone marrow stromal cells (BMSC) [16]: 0.53 nM
IC50 [17]: 390 pM
EC50 [18]: 190 pM
EC50 [19]: 300 pM
EC50 [20]: 220 pM
EC50 [21]: 800 pM
IC50 [22]: 260 pM
IC50 [23]: 500 pM
B1: natalizumab (antibody, human IgG4, kappa, V domains shown)
VH: QVQLVQSGAEVKKPGASVKVSCKASGFNIKDTYIHWVRQAPGQRLEWMGRIDPANGYTKYDPKFQGRVTITADTSASTAYMELSSLRSEDTAVYYCAREGYYGNYGVYAMDYWGQGTLVTVSS
VL: DIQMTQSPSSLSASVGDRVTITCKTSQDINKYMAWYQQTPGKAPRLLIHYTSALQPGIPSRFSGSGSGRDYTFTISSLQPEDIATYYCLQYDNLWTFGQGTKVEIKR
modifications: Glutamine 1 cyclized to pyroGlutamic Acid; C-terminal Lysine is removed posttranslationally
notes: Humanized version of murine monoclonal antibody 21.6; also called AN100226; TYSABRI
